Source: the supplement of paper PMC9170038

Tested on: MS2 coat protein
Assay: apparent KD of MS2 coat protein; designed switch direction (-1 OFF switch, 1 ON switch): -1; higher = weaker reporter binding
Outline: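 Transcription of designed RNA switches on Illumina chips was done by stalled E. coli RNA polymerase. SNAP-549-labelled MS2 coat protein was then titrated in doubling steps from 0.7 or 1.5 nM to 3 µM, with steps of 0.8–1.5 h at the lowest and 10–20 min at the highest concentration. The per-design median over clusters of curve-fitted normalised fluorescence is reported as apparent KD.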

[1] = Eterna round: R95, input ligand: microRNA oligo, concentration not stated
[2] = input ligand: microRNA oligo, concentration not stated
[3] = Eterna round: R95, input ligand: FMN 200 uM
[4] = Eterna round: R95, input ligand: none

## GGGUGACAUGAGGAUCACCCAUGUCAGGAUAUGGGCCCGGGCCCGAAAGGGCCCGGGUUUAGAAGGGACUGCCC [-44.4, -43.4 kcal, 22%A (-3 GC series)] (Eterna round: R97, puzzle: Exclusion 1)
Input ligand: FMN 200 uM
  apparent KD of MS2 coat protein: 59.3 nM
Input ligand: none
  apparent KD of MS2 coat protein: 42.9 nM

## CCUCAACAGUAGGAUAUCAUCAAACUAUUGUGAUGAGAAGGACUGACAUGAGGAUCACCCAUGUUGACGUGAUA [Exclusion 6 - 6:b] (puzzle: Exclusion 6)
[1]
  apparent KD of MS2 coat protein: 47.8 nM

## ACAUGAGGAUCACCCAUGUCCGGCUGGUCUGUUUCGGUUGUCGAGGAUAUAGUUCGGUGUUCGCGCUAGAAGGUGGGAGCUGGG [Aenatbe mod 56] (Eterna round: R96, puzzle: Exclusion NG 3)
Input ligand: FMN 200 uM
  apparent KD of MS2 coat protein: 161 nM
[2]
  apparent KD of MS2 coat protein: 116 nM
Input ligand: none
  apparent KD of MS2 coat protein: 147 nM

## CGUCUGUAAGGAUAUGGUAGCAUUUACAUGAGGAUCACCCAUGUUACAUGGGACUAGUGAUUAGAAGGUACGAACG [EX5 #55] (Eterna round: R97, puzzle: Exclusion 5)
Input ligand: FMN 200 uM
  apparent KD of MS2 coat protein: 276 nM
Input ligand: none
  apparent KD of MS2 coat protein: 322 nM

## AAUCGACAUGAGGAUCACCCAUGUUAGGAUAUGCGGAAUCGGUCAAUCAAUCGAUCAAGCAGAAGGGACGGGUU [Candy Rainbow] (puzzle: Exclusion 1)
[3]
  apparent KD of MS2 coat protein: 29.1 nM
[1]
  apparent KD of MS2 coat protein: 27.4 nM
[4]
  apparent KD of MS2 coat protein: 34.2 nM

## AGGUGGAAGCAGGAUAUGCUAGAAGUGUAGAAUGCAGAAGGGCUAACAUGAGGAUCACCCAUGUAAGAGGUGUA [JR_E6_Sub051] (puzzle: Exclusion 6)
[3]
  apparent KD of MS2 coat protein: 383 nM
[1]
  apparent KD of MS2 coat protein: 200 nM
[4]
  apparent KD of MS2 coat protein: 236 nM

## AUUGUUUGAUACCUCUAAUACAUGAGGAUCACCCAUGUUAUCGAGGAUAUGCAGUAGAGUGGAGAGCAGAAGGCGAAGUAAGUG [JR_ExcNG3_Sub028] (Eterna round: R96, puzzle: Exclusion NG 3)
Input ligand: FMN 200 uM
  apparent KD of MS2 coat protein: 27 nM
[2]
  apparent KD of MS2 coat protein: 14.4 nM
Input ligand: none
  apparent KD of MS2 coat protein: 13.7 nM

## CUCCUCGUGGCGCCUAAACACAUGAGGAUCACCCAUGUACAGGCUUUUUGCCGUCUUAUAAUAAAACCGAGGAUACG [Cezabi] (puzzle: Sensor v3, turn-off variant 1)
[3]
  apparent KD of MS2 coat protein: 19.1 nM
[1]
  apparent KD of MS2 coat protein: 63.9 nM
[4]
  apparent KD of MS2 coat protein: 21.2 nM

## CGUCUGUCAGGAUAUAGUUACAUAGACAUGAGGAUCACCCAUGUGACGUGGGACUAGUGACUAGAAGGGACGAACG [EX5 #71] (Eterna round: R97, puzzle: Exclusion 5)
Input ligand: FMN 200 uM
  apparent KD of MS2 coat protein: 58.7 nM
Input ligand: none
  apparent KD of MS2 coat protein: 28.8 nM

## AGUAUGCGGCAGGAUAUCCAUCCGCGAAAAGGUGGAGAAGGGCUGACAUGAGGAUCACCCAUGUGCGUCCUGUA [salish99_ex6_r4_030] (Eterna round: R97, puzzle: Exclusion 6)
Input ligand: FMN 200 uM
  apparent KD of MS2 coat protein: 25.3 nM
Input ligand: none
  apparent KD of MS2 coat protein: 17.7 nM

## AGAUGGCGAGGAUAUACAUGAGGAUCACCCAUGUGAGAGAAGAAAGUGAGGAAGAAAAGUAGAAGGCGCUGUCA [Mat - Exclusion 3 - Mod of Salish D11] (puzzle: Exclusion 3)
[3]
  apparent KD of MS2 coat protein: 184 nM
[1]
  apparent KD of MS2 coat protein: 54.4 nM
[4]
  apparent KD of MS2 coat protein: 60 nM

## CUGUAGUCAGGAUAUACAUGAGGAUCACCCAUGUAAAAUUUUAAUUUAAUUUGAAGGUGUAGAAGGGACCAGUC [Ex3 #26] (Eterna round: R97, puzzle: Exclusion 3)
Input ligand: FMN 200 uM
  apparent KD of MS2 coat protein: 30.1 nM
Input ligand: none
  apparent KD of MS2 coat protein: 38.5 nM

## CUGAAAGACGAAGGAUAUCCAGGCACCGGAGUAGGAGAAGGUCGUCCGGGUGUCCUAGAACUUGAGGAUCACCCAAGUAGAAGA [Mutated MS2 EX1.5] (Eterna round: R96, puzzle: Exclusion NG 1)
Input ligand: FMN 200 uM
  apparent KD of MS2 coat protein: 34.4 nM
[2]
  apparent KD of MS2 coat protein: 36.9 nM
Input ligand: none
  apparent KD of MS2 coat protein: 24.7 nM

## UAUACACAUGAGGAUCACCCAUGUGAGGAUAUGUACAACAACAAGACGGAAAAAAAAUACAGAAGGCACAAAUA [JR_Exclusion1_Sub028] (puzzle: Exclusion 1)
[3]
  apparent KD of MS2 coat protein: 22.7 nM
[1]
  apparent KD of MS2 coat protein: 25.7 nM
[4]
  apparent KD of MS2 coat protein: 32.4 nM

## UUACAAUGUCGCUUAAUAGCUUUUUGCUCGUCUUAUAUUACAUGAGGAUCACCCAUGUAGAUCAUGUGGCGUGACCU [JL ViennaUCT Maridi mod 7] (puzzle: Sensor v3, turn-off variant 2)
[3]
  apparent KD of MS2 coat protein: 206 nM
[1]
  apparent KD of MS2 coat protein: 40.7 nM
[4]
  apparent KD of MS2 coat protein: 210 nM

## AAUUUACAUGAGGAUCACCCAUGUCAGGAUAUGGUUUUAUUUUUUUUUUUUUUUGAUUCCAGAAGGGACAGUUA (puzzle: Exclusion 1)
[1]
  apparent KD of MS2 coat protein: 22.7 nM

## GCACGGAGUGUAGGAUAUCUGUGCGAUUAGCUCAGAGAAGGACACAUGAGGAUCACCCAUGUGUUCCACCGAAAGGUUCCGUGC [Eli exng1 - 048] (Eterna round: R96, puzzle: Exclusion NG 1)
Input ligand: FMN 200 uM
  apparent KD of MS2 coat protein: 11 nM
[2]
  apparent KD of MS2 coat protein: 8.4 nM
Input ligand: none
  apparent KD of MS2 coat protein: 11.4 nM

## ACAUGACUGCUAGGAUAUAGAUGACAUGAGGAUCACCCAUGUUGUCUCAUGUUUAUGGAAACGGACUAGAAGGAGUAGUAUAUG [Ex NG2 #15] (Eterna round: R96, puzzle: Exclusion NG 2)
Input ligand: FMN 200 uM
  apparent KD of MS2 coat protein: 20.6 nM
[2]
  apparent KD of MS2 coat protein: 14.5 nM
Input ligand: none
  apparent KD of MS2 coat protein: 21.3 nM

## CGUGGACAUGAGGAUCACCCAUGUGAGGAUAUCGGCUGGUACGUGUUGGCUGGCAUCUCGAGAAGGCACAUAGU [Exclusion 1 V62] (puzzle: Exclusion 1)
[1]
  apparent KD of MS2 coat protein: 40.8 nM

## CAGUACUGAGGAUAUACAUGAGGAUCACCCAUGUGUCUAAGGUAGGAUACUACCAUUAGUAGAAGGCAGUACUG [Fiskers Ex 3 828 mod 19] (puzzle: Exclusion 3)
[1]
  apparent KD of MS2 coat protein: 13.2 nM

## AGUAGUUGUUUCCGUUCUUACAUGAGGAUCACCCAUGUUUCUUGUCGUGCUCGCGUUGCUCGUCAGACUACCAGUUG [salish99_TOv1_r3_061] (puzzle: Sensor v3, turn-off variant 1)
[3]
  apparent KD of MS2 coat protein: 62.4 nM
[1]
  apparent KD of MS2 coat protein: 73.7 nM
[4]
  apparent KD of MS2 coat protein: 87.6 nM

## AAAGACCAAGUGAGGAUAUUAUGGACAAUGGAACAUGAGAAGGCACAUGAGGAUCACCCAUGUGAAUAGGGACG [Eternabot (Original) Solution 22] (Eterna round: R97, puzzle: Brourd's mod of Exclusion 4)
Input ligand: FMN 200 uM
  apparent KD of MS2 coat protein: 33.5 nM
Input ligand: none
  apparent KD of MS2 coat protein: 19.4 nM

## AACCGCGGAGGAUAUACACGGUGAUACUGAACUCCGGCACGACAUGAGGAUCACCCAUGUAGAAGGCCGAAUAU [EX2 B.13] (Eterna round: R97, puzzle: Exclusion 2)
Input ligand: FMN 200 uM
  apparent KD of MS2 coat protein: 151 nM
Input ligand: none
  apparent KD of MS2 coat protein: 21.3 nM

## CUUUUGUGAGGAUAUCAGUAGUAAAUAAAUUAAAUUACUACUGAGAAGGCACAUGAGGAUCACCCAUGUUCCUC [salish99_ex3_r3_081] (puzzle: Exclusion 4)
[1]
  apparent KD of MS2 coat protein: 39.3 nM

## AGUAACUAUCACGAAAGUGAUAGUUACAACAGGUGAUAAACAUGAGGAUCACCCAUGUCCUCAUUUGCUCGUCUUAU [Sensor 3 - 11] (puzzle: Sensor v3, turn-off variant 2)
[3]
  apparent KD of MS2 coat protein: 984 nM
[1]
  apparent KD of MS2 coat protein: 422 nM
[4]
  apparent KD of MS2 coat protein: 527 nM

## AAACGGCAGGGAGGAUAUGCUUACCUGGGUCGUCUUCGAACAUGAGGAUCACCCAUGUAGUCGACGCAGAAGGCCCUCAAAGCC [JL ViennaUCT Ontiis mod 2] (Eterna round: R96, puzzle: Exclusion NG 2)
Input ligand: FMN 200 uM
  apparent KD of MS2 coat protein: 47.4 nM
[2]
  apparent KD of MS2 coat protein: 17.1 nM
Input ligand: none
  apparent KD of MS2 coat protein: 21.5 nM

## UAUUAGCAAGUAAGGUCCCACAUGAGGAUCACCCAUGUGCUCGUCACCUCAGGUACGGAGCGGAAACUCCCGAUAUG [Sensor-V1 #91] (Eterna round: R97, puzzle: Sensor, turn-off variant 1)
Input ligand: FMN 200 uM
  apparent KD of MS2 coat protein: 81.4 nM
Input ligand: none
  apparent KD of MS2 coat protein: 83.1 nM

## CUGCUCCGUGUAGGAUAUGCAUACUCCCAUUAUGCAGAAGGACAUGAGGAUCACCCAUGUAUGUUAUUAUCAUGUGUUGCGUGC [Design 12] (Eterna round: R96, puzzle: Exclusion NG 1)
[2]
  apparent KD of MS2 coat protein: 30 nM

## GGUGCGUAUGUUAGGAUAUGCUGGUCCUUGGAUCGGCAGAAGGUACAUGAGGAUCACCCAUGUGGUGUCGUUCC [salish99_Bmod_ex4_103] (puzzle: Brourd's mod of Exclusion 4)
[1]
  apparent KD of MS2 coat protein: 50.8 nM

## UUAUACGUUGAGGAUAUGCGACUUUGUAUAGUUGUAGAAGGCGAUACAUGAGGAUCACCCAUGUUUAUGGGCAU [LRO-Ex6-10] (puzzle: Exclusion 6)
[1]
  apparent KD of MS2 coat protein: 186 nM

## AGGAAUGAAGGAUAUACAUGAGGAUCACCCAUGUAAAAAAAGUCGUUUAUUGUGUCAUGUAGAAGGUCAAGAAG [JR_Exclusion3_Sub002] (puzzle: Exclusion 3)
[3]
  apparent KD of MS2 coat protein: 29.6 nM
[1]
  apparent KD of MS2 coat protein: 29.6 nM
[4]
  apparent KD of MS2 coat protein: 33 nM

## CUUUUGUGAGGAUAUCAGGUGUGCUAGCGUACUGGUACAUCUGAGAAGGCACAUGAGGAUCACCCAUGUUUCUA [Mat - Exclusion 4 - Mod of JL - D38] (puzzle: Exclusion 4)
[1]
  apparent KD of MS2 coat protein: 64 nM

## CUGUGCACGCUGCGGUCCUACAUGAGGAUCACCCAUGUGGUCUGGUGGCGUGGGUCGCCGGACUUGGCUCGUCUUGA [salish99_S_TOV1_R5_023] (Eterna round: R97, puzzle: Sensor, turn-off variant 1)
Input ligand: FMN 200 uM
  apparent KD of MS2 coat protein: 19.1 nM
Input ligand: none
  apparent KD of MS2 coat protein: 19.2 nM

## CUGAACCCGGUAGGAUAUAUUGUGGGCGGGCGUGGAACGACAUGAGGAUCACCCAUGUAAUUGAGGUAGAAGGGCCGAGAGGUU [Excl-NG2-LRO16] (Eterna round: R96, puzzle: Exclusion NG 2)
Input ligand: FMN 200 uM
  apparent KD of MS2 coat protein: 38.5 nM
[2]
  apparent KD of MS2 coat protein: 30.4 nM
Input ligand: none
  apparent KD of MS2 coat protein: 43.8 nM

## UGUUGUCGCGCAGGAUAUGAGGAUCACCCAUAUGGAGGAUAUGAAAAGAAGGUUCUGAGGAUCACCCAGAAGGGCGGGACAACU [pwkr exNG2 2xF5 2xFMN.20] (Eterna round: R96, puzzle: Exclusion NG 2)
Input ligand: FMN 200 uM
  apparent KD of MS2 coat protein: 261 nM
[2]
  apparent KD of MS2 coat protein: 43 nM
Input ligand: none
  apparent KD of MS2 coat protein: 60.6 nM
